This note sets out measurements from US20060134788.

This data set relates to T1, MJ1 integrase (phage phiFC1) (Enterococcus phage phiFC1).
T1 sequence: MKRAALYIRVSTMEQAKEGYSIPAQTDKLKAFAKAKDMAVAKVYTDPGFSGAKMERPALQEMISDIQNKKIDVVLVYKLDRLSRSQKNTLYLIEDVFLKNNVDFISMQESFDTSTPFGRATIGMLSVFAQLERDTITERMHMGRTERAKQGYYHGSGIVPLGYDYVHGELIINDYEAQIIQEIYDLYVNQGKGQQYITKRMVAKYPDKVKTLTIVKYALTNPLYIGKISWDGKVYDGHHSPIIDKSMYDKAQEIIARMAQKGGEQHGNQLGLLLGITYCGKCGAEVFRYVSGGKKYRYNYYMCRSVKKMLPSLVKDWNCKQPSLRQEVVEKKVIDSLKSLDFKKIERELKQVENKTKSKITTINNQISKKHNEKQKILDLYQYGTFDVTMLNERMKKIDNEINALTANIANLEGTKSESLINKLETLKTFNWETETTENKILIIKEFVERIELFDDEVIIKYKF
As to the kind of experiment: cell_activity. Conditions: 396 cells without MJ1, FACS 72 h.

Consider “CGGCCATTGAATTAGGGTGTCGAATTTATCAAAGTAGTCAAATCAAATTTGGCAAAGTTACGTCCAGTCAACAAGTCGCTCAACGATTACTCCAAGAGATGAAGGGGCTGCAACAAGAACATTTAATTTGTATTTACTTGAATACCAAGAATGACATTATCCAACAGAAAACGATTTTCAAAGGATCACTGAATCAAAGTATTGCTCATCCACGCGAAATTTTTCGGGAAGCGGTTAAATATTCTTCTGCTCGCATACTATTAGCTCATAATCATCCATCTGGCAATCCG (double strand) [attB 290 bp]”, for which the activity (fluorescent cells) (attB x attP integration in 293T cells) came out at 1240.

“GAAGATCTTGTTCTCGAGCATAGTCTCCTTCAAGTTTTGTTATATCTGATAATAGAGACTTTTCTTTTTGTTGTAAACTATTGATTGACAAATCTGGTCCTCCTTTAAAATATATAATTAATATTGGTTTAATTATACCATTCTATAGGTAAGAACAGTAATATGACCAAATTTAAATATCTTTTTATGCACTAATCAAAGTTTTCCTTACAAGCATTTNTTCAATTACGAGTTGATTTCTTTTATTCAAATGACCATAGACAGCTAGTTCAGATTTTTCGGGTAGCATTAGTAACATATTTGCTAATTCGTATTTGGAGACGATACAGTTTATAGTTTCGTCCTGTGTTACTAATGAGAATCGAACTAGCATTTTTGGGTACATACTTAACATTCTAATCTTTTCAACTACTCCTACATAATTAGTTTTCATAATATCGGCCTCCTAGTAATACAATTATACCGAATGCATGTTCGTATTGTCTATAGGTTTGTATAAATGTAATATTTTAGGTATATGATTTTGTTTATTAGTGTAAATAACACTATGTACCTAAAATTTATATTTAATAATTACCTCATCATCAAATAGTTCTATACGTTCAACAAACTCTTTGATGATAAGGATTTTATTTTCTGTAGTTTCAGTTTCCCAATTAAAAGTTTTTAACGTTTCAAGCTTATTAATTAATGACTCACTTTTGGTACCTTCTAAGTTTGCTATATTGGCAGTTAACGC (double strand) [attP 739 bp]” yielded an activity (fluorescent cells) (attP x attB integration in 293T cells) of 1240.
